From publication PMC9040844, “Escherichia coli Uses a Dedicated Importer and Desulfidase To Ferment Cysteine” (mBio, 2022)

Substrate: N[C@@H](CS)C(=O)O
Assay: purified protein
Type: biochemical, Escherichia coli
Conditions: 50 mM Tris pH 7.6, room temperature, anaerobic, Fe(II)/DTT-reactivated [4Fe-4S] enzyme

B1: CyuA (Escherichia coli K-12) (protein)
chain: MFDSTLNPLWQRYILAVQEEVKPALGCTEPISLALAAAVAAAELEGPVERVEAWVSPNLMKNGLGVTVPGTGMVGLPIAAALGALGGNANAGLEVLKDATAQAIADAKALLAAGKVSVKIQEPCDEILFSRAKVWNGEKWACVTIVGGHTNIVHIETHDGVVFTQQACVAEGEQESPLTVLSRTTLAEILKFVNEVPFAAIRFILDSAKLNCALSQEGLSGKWGLHIGATLEKQCERGLLAKDLSSSIVIRTSAASDARMGGATLPAMSNSGSGNQGITATMPVVVVAEHFGADDERLARALMLSHLSAIYIHNQLPRLSALCAATTAAMGAAAGMAWLVDGRYETISMAISSMIGDVSGMICDGASNSCAMKVSTSASAAWKAVLMALDDTAVTGNEGIVAHDVEQSIANLCALASHSMQQTDRQIIEIMASKAR
notes: full ORF in pET16b, N-terminal His10 tag kept, about 47 kDa; expressed in E. coli SR011 (BL21(DE3) katG katE) with isc operon
Question: Which Km does the source give for B1 here?
Answer: Its Km is 200 µM.
